Assay results published in US20150174169.

Columns and labels:
[1] = test system: IL2RG ZFN pair (ZFN-L/ZFN-R, exon 5) (synthetic construct); assay: cell_activity; settings: in vitro sample A
[2] = test system: AAVS1 ZFN pair (ZFN-L/ZFN-R, PPP1R12C intron 1) (synthetic construct); assay: cell_activity; settings: CD34+ cord blood cells, Cel-1 mismatch assay, +/-3.8

SCARB1 off-target site
activity ([1]; B 0.70, G ns, ns in mouse): 0.17 % NHEJ

AAVS1 ZFN target site
activity [2]: 23.8 % NHEJ

IL2RG ZFN target site
activity ([1]; deep sequencing, B 61.18, G 45.60, Cel-1 assay 26.3+/-2.7 (p192)): 54.6 % NHEJ

SLC31A1 off-target site
activity ([1]; B and G ns, mouse C0 0.02): 0.61 % NHEJ
